In article PMC4266991:

Target: SUFU (UniProt Q9UMX1)
Assay: co-immunoprecipitation, immunoblot
Conditions: reference: wild-type GLI2, CCL21; sites S149

binding against the reference: stronger
Substance: GLI2 (from UniProt P10070) GLI2 S149A, CCL21
